# Experiment: soluble on expression in E. coli; label from the status in PepcDB or PDB records
row,Sequence,soluble on expression in E. coli
1,MGSDKIHHHHHHMRIVNDVKKILFLAANPQNTVRLRLDKEVEEIRTTLQLSVNRDRFVIESRGAVRPDDLQQYMYNLKPQIVHFSGHGGGEYGLAFEDENGAEQPVSTDALAKFFQLFAGEVNCVVLNACYASVQAEAIAQYIPYVVGMNQAIGDEAARQFAQGFYRAIWDNRSIEDAFASGVNAIALDGIPEDLTPVLLRQADRVTTQTIPSNSVSLESPDGQVRIDSRFYVHSSYEERCYAEVKKPGSLIRIKSPHNMGKSSLMVRVLGYAAQLGYRTVTLNLEQVNQKFFNDLDKYMQWFCASVGKPLGVRIKIEEYWDDIFGANDNSTDYFEKYLLDDTEPPLVVAIDNFDRVFKYPDIETDFCGLLRGWHERSRSNQLWGKLRFVIVYSQEPYLQKDINQSPFNVGLPIELGEFTTAQVQELIRLHGLDWSGQFVKQFMDLIGGHPYLVRSALYHIAAGDLTLEEFLRTAPTEAGIYSDYLLGHLKSLEDYPTLGAAMKTVVTSEFPVRLRSEEAFRVWLCGLRITSSPDANCIVNIFAIA,not soluble
2,MGSDKIHHHHHHMRKKPLTIFSDGTLTRRENTLYFESAKGRKPLAIEGIYDIYIYGHVNITSQALHYIAQKGILIHFFNHYGYYDGTFYPRETLLSGDLIIRQAEHYLNKEKRLFLAKSFVTGGTKNMERNLKNWGIKAKLSDYLDELNDARKITEIMNVEARIRQEYYAKWDENLPEEFKIVKRTRRPPKNEMNALISFLNSRLYATIITEIYNTQLAPTISYLHEPSERRFSLSLDLSEIFKPIIADRVANRLVKKGSLKKEHFREDLNGVLLTEEGMKIVTKAYNEELQKSVKHPKIGSNVTRQRLIRLEAYKLIKHLVGVEEYKPLVAWF,not soluble
3,MGSDKIHHHHHHMRKLGWKELDIILVTGDAYVDHPSFGVAFIGHYLVSHGFKVGIIAQPDWRTEKDITRLGRPRLFFGVTAGNVDSMVANYTASKKKRKTDDYTPGGIGGKRPDRATIVYTNLIKRFFPEVPVVLGGLEASLRRFAHYDWWSDRVRKSVLVDSKADLLVYGMGEKAVLGIAQILSRTGDIEKCKSIRGVVWWASQKPEEGIELPSYDEISENPEKYAEALKLQTWYTDPYKNIPIYQRQDTRYVVQNPPQPPLSQEELDRLYLLPFEREVHPFYAKMGKVKAIETVKFSITAVRGCFGNCSFCALTQHQTTHVSYRSKDSILEEVRILTKKKDFKGTITDVGGPTANLYGSGCSIRETKGQCQKFCLYPIVCKVVRPNHDEFISLLESIRQIPGVRNVFVSSGIRHDFVFAEKDPDVFIRELVKYTPGQLKLAPEHAHPKVLSLMRKPPVELFLEFKKRFETLAKKMGKRKYVIGYFIVGHPGEGWRENNYLRDFILKHLGYFPQQIQIFTPTPGTVSTAMYYSGVDPFTGEKVHVERSLKVRNKMKENVLFKKKGREKR,not soluble
4,MGSDKIHHHHHHMRKLLVIGLDSVPPLLIEKFRDLIPNLQSLLNVKGKLLSGHPPITVPMWGVMLAGRSAGELGVYGFRHRRPGDVGTSYVVTSRSIAEGWVWDDLGLRLGLRSLVIGVPPGYPARRVRGWFVSCFLTPGVDGAFAWPPGLKREILKASGGDYVFDVKYRVEDKESVRKSLWRLAKTQFKVVKYLLSSKPWDFAMYMHIGTDRVHHAFWKYWDPEHPRYPGEGNPYENVLPEYYSLVDKHIGQLLESLPGDTDVIVVSDHGAKAMKGAFAINQWLEEEGYLSLKEEPKRPGADLEASMIDWDRTMAWAWGGYYSRVYINLKGREPRGIVGREEYWSVVEQLKRDIEKIRGPNGERWENKAYHPSELYPEVRGDAPDLMVYLDNLSWRPAGTIGWPSTYLEENDRGPDDAVHDWHGIIGGNADVLKEAVKDSTVPIQRVKEIILAHYGLESHMKDRGRGAV,not soluble
5,MGSDKIHHHHHHMRKPRVFIGSSVESLPIADAIAENLEFDAEVTIWRNGTFNLSSNALDDLISKAKSVDFSIFIFSPDDLTIMKSREKYAVRDNVVFELGLFIGAIGKNRCFIVKPRDVDLHFPSDLLGITPTDFDANRSDEDLASSLNYSATQIKRAFKAQGLLELDSVQEKPRIDVNAQLATLTDTDMIALSVLLESVNSDVDGCASWDLYNRFNNYDFSSAQVNLAVIKLTRSGMIEKLNTSDFNGNEYFSYKLTEYGIDVCLSNQNRIETLIAPKKRQSGRDVPQQPPVRS,not soluble
6,MGSDKIHHHHHHMRNTDNGVIGSDQTAVMTRLALDELIDQLLHSNALSLKLTANPLVADRAWHLTENTCIRAFSADDPQAKKRAHHALFILYQSWLADPLSPAAANQFHPLLSGIRNYIESEWLRAESKRFHHQRPMLNAGNIVDELRALCQQHPASHHPLFDFLASEASAAQIDYFFKSDSALNLLFFDLVAMGLVGSLPETRAEIAQNLWDEIGQGSTEITHVNLYKDLLKRRNIALPDNHFAHLYEWQGLAGYNAFMLGGVNRQHYYKSLGVMAMTELLDPPQYEKLVAGCRRIGLSERDVHYYAEHITVDIGHADGWLNNVIVPIGKKHPAAMEEVFFGAALRLQTCNDYYDGLLAALQSLGGSLSSHSVPPSE,not soluble
7,MGSDKIHHHHHHMRPVDKGKDLGSFKPYNKACAPLQDRLGEYCSYCERWIAAAIEVEHILPKKANPSQKYRWSNFLLACKNCNTGKGSDQIIVTDYLWPDLDNTFLAFCYDDEGRAYPNPRLPPAILEKAKATWTLTNLNWHPDTTFTGMVAPSEKDHRHSHRKQAWIYASDKRNQLLQYDTPDRRVSVAKDALQRGMFSVWMTVFNTTSELDREIRRLLIENFVGTATNCFDRLGNAHRSSTGQI,not soluble
8,MGSDKIHHHHHHMRPVYIATAYLGPIQQYCKMLQYPEVRIETAENYVKQTYRNRCVIAAANGPLSLSIPIVKPDTLKCQTKDIRISDHGNWRHLHWNALVSAYNMSPFFEYYADDLAPFYEKKYEFLLDFNEELRRLVCDLLDMQPAVVYTEHYEPEVANDFRETIRPKHEGEDPAFRPEPYYQVFREKFGFLPNLSIADLLFNMGPEGLVTLRASITGSL,not soluble
9,MGSDKIHHHHHHMRQPDHDDERAQCFAGFAPESIAHYLEHVWLGTPNPVEEPALADDRTASLAVIPVSELAGRRTELLDAMVTLYGGERETHARALLSQWTKYYFGFTATAGFVAAALLRRPLAMSPDNTHIVLRDGLPIAAYFARDALQPVECDPARRYAPLVEHLNAVIEMLCTMTRIAPRVLWSNAGNLLDYLFEQCAPQFDLSEDIAWLFGPLAANGEANPLRLPVRQAKPRAASLPNPFSARRVCCVRYEIPGETQLCGRCPLLLTMSDAEIALQAASQ,not soluble
10,MGSDKIHHHHHHMRRLRKALAAGSFLFRGTFVQSDPIPARARRPIMMLEHIQARTHHARRGALRNSFTYGVDYVLTDLGPAGPLLISRNRFNLWSLWDHRHGGARDNGHGVHWFRSLLQERGLATENAQLLLLTQPSFLWFHFNPVSFWIALVDGTPRAFVAEVNSTFGQRHCYFCARDGFAPIRKSDTLIAEKLMHVSPFQRIAGHYAFNFGMTDTQIDIRISFENGDHGVLATLSGERRPATSASLAWAAIRRPLGAARVLALIHWQAAILYLKRAPFLKKQHPPEHLVSDGYDLRGTKE,not soluble
11,MGSDKIHHHHHHMRRPRRPQDFLEYEKVLKFKESEKQIEETETKGDVRVALVVPSGYEVAASGLAFHYVQKLLNSHPRIRCERFFYDETFKKFYSLETQTPIDEFPIWLFSVSFENDFSNLLDILKKKDVPLSWKEREDYHPLIIIGGAVTYLNEEFLIPVADAVYYGELEKYLDLFTEALTGETKQEILSSLSRIPSVEVPSLKEHSEIATGVDLNDFLPHSSVVPSRGVFPGKLLVEVGRGCIRRCAFCIFGKNLKPARFVKPERFEELVKNTPYSEYGLISATITDYPWLEDLLDTVEKYQLKISVSSLRLDRLSERLLRTLKDSGQRSFTIAPEAGSQRIRDILKKDITDEQIENALKLARKLDFDRVKMYFIYGLEEETEEDLEAFKKLGDLAVRLGYREVHMSFNPLIPKPGTEFERRKMEPVDVLRKKEKILKNLLKGFRVDFESIRESVVQYTIAHAGKEEVESWLKFFEKSDKKLLGKLIYEEGRKRLC,not soluble
12,MGSDKIHHHHHHMRRTALHSSTVGIRMRRALLRGLALSLTLGGAALGQSVGDSIFPSLGQRGLDVQHYDLHLTVPRPGEPHLSGDVTLTVGAREPLSRIVLDLLGPRVSAAQWNGQRVRWVQTAQKVEVTLPRPLRPGETGRLRLIYAGTPELSGDPGLPIRPGWQNEAGLSYSLSEPHGTRGFLPCNDHPSDPATFTVRVTVPASASAAASGLFTTQTERNGLKTLTFTQRVPVPTYALGLIVGPLERRTAPDVQLGTQTVHRRDIYAAGLPAGTTVPEGETARMLRVLSDWFGPYPDEVYGVALLPVRQLALETAGLTTMPATSNRERVRLHELAHQWFGDQVTLADWADTWLSEGFATYAELLWAESQGEDGQAMAADWYARLSVLPSRPLRATREEEIFDASAYFRGALALHALRLKVGDAAFGQFLHSYVKTFTGRPVSTTALLTLVKTQLGAEAEQTLRVWVEGRTLPPLPEPVGAPV,not soluble
13,MGSDKIHHHHHHMRSHGGDVYKVSPNYDRITDMSSNVNPFLDLGKYSLYPEISYTDIEEKLRVYTKSTNMGIVIGPGLTHLIYKYFEFYQVKKPIIAMPNFSEYKGIAEDRHLRFSAIPSYIIEKDPLILKNFDHDALFITSPSNPFGELFPESTLETVFEIEEKRGRRVFLDGAFMDFVPNYAESIVQSSRSYFNVTIGRSLTKILAIPSLRAGYLIMERHEADLFRKAMEPWSICQPAIDFIRSIDINEVAKNSVALVNGEREYLISELKARGIKVIGNPSANYIVISMPRTDEFYNFMLSKGILVRLLDDYDYVGRCLVRLAIKTRSQNNAFLNALDNFMSSSE,not soluble
14,MGSDKIHHHHHHMRTVLYDEHAKLNAKFTEFNGWDMPLYYRSIIEEHMAVRKHVGIFDVSHMGDVTVSGKDASAFLDHMFPTKVSNLKNGECVYTAFLNDSGLMIDDTIVYRMGEDSYFFVPNAGTTEKIYRWVSDHSAGYSVKIENVSNRISSIALQGPESEEVLNELGFSYPGYFKFQYVSGKYMNAITGKDQIIISGTGYTGEKGVEFIIPNEHAVELWKKLLEAINKRNGLPAGLGARDTLRMEKGMLLSGHDFNEDRDPYEASVSFIVNNDEDFVGKKNLEIRRRSDHEIFRGFVLSDGIPRNGNPIKAGGKRVGTVTSGTISPVLNKGIALGYIDKAYSKENTEVMIEIRSVDHKAVVTKPRIVK,not soluble
15,MGSDKIHHHHHHMRVAIDAFNIALAHGTGVATYGRTLASAAAGLGHEVNVLFGAGAGYSKVPLLNEIALAEVGAVSARGPSRAALARGIARGLAGARPAHDLPISGQVILPPGLRLDARRHSNVPNLFKAADLGFRAAGAFSKVKVPGTDLAHWTYPLPLKMVGARNVYTLHDLVPLRLPYTTADVKHAYYRLCRRIARDADHILTVSECSRRDIVRLLGVDEDRVTNLYQTSDIADAIAGVSEDFVARYVEGLLGVGMREYFLFFGAIEPKKNVARLIEAFLASAVQSPLVIVGGAGWGGEQDVKLLKSLAGMDTRKRIVWLGYLPRQMLAMLIAGARATVFPSLYEGFGLPVLESMELGTPVITSNVSSLPEVAQDAGLLVDPYDVRSLATAFLQLDADPGLRSQMSMRGREVAAGFSAEAYRGRLADFYAKF,not soluble
16,MGSDKIHHHHHHMRVELNGILPVCPCSGRGYLDNARLFRQIEPIVRKQSPFMNSRSLLCLLAVSLCASPVWADTVWMKNGDRLSGKIKVFDGGKLLLETPYGGSIALDWKQVQTLESDQEMLVKQDAYSGEKAKSLKAAEAGKVTLANGDSPKTVALASIEQIMKPKPLVEDFVWKGNVDVALDYKRAENDTDDYDVGFKTTARHGRWRHNAEGEYNRETKDDVTTTNNWSAEYALDRFITDKWFWQGRAEYKRDHIEDLARQRTVGTGPGYQFWDDELGAFSLGSLINRTDFEYRDGGKDNFYSAAVKWDYTRYLIGKNVQLFTNGEFAKPLGGVADYSLDAEVGLRYKVTEWASLNLKAEKDIITGTRESDLDKTRYTAGFGVTW,not soluble
